Tested on: Escherichia coli TOP10
Assay: shrunken log2 fold change of peptide-encoding DNA abundance (4.5 h post-induction vs induction); higher = less antimicrobial activity (less host growth inhibition)
Settings: time post-induction: 4.5 h; library: site-saturation at positions 5, 18, 19, 20
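Further: peptides expressed intracellularly from a pBAD plasmid library in pooled LB shake-flask culture, induced with 0.3% L-arabinose, DNA abundance read by NGS, three biological replicates, DESeq2 with apeglm shrinkage.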

| Sequence | shrunken log2 fold change |
| --- | --- |
| RRIRVRPPRLPRPRPRPEPIPRP | 0.0124 |
| RRIRVRPPRLPRPRPRPEQNPRP | 0.316 |
| RRIRVRPPRLPRPRPRPERPPRP | 0.0183 |
| RRIRVRPPRLPRPRPRPESGPRP | 0.177 |
| RRIRVRPPRLPRPRPRPESQPRP | -0.0489 |
| RRIRVRPPRLPRPRPRPETEPRP | 0.276 |
| RRIRVRPPRLPRPRPRPETVPRP | -0.103 |
| RRIRVRPPRLPRPRPRPEVNPRP | -0.0796 |
| RRIRVRPPRLPRPRPRPEVSPRP | 0.0554 |
| RRIRVRPPRLPRPRPRPEWDPRP | 0.454 |
| RRIRVRPPRLPRPRPRPEYFPRP | -0.285 |
| RRIRVRPPRLPRPRPRPEYLPRP | -0.191 |
| RRIRVRPPRLPRPRPRPEYTPRP | -0.0361 |
| RRIRVRPPRLPRPRPRPFAAPRP | 0.15 |
| RRIRVRPPRLPRPRPRPFAGPRP | 0.03 |
| RRIRVRPPRLPRPRPRPFATPRP | 0.276 |
| RRIRVRPPRLPRPRPRPFDQPRP | -0.365 |
| RRIRVRPPRLPRPRPRPFFCPRP | -0.00678 |
| RRIRVRPPRLPRPRPRPFGLPRP | -0.0857 |
| RRIRVRPPRLPRPRPRPFHNPRP | -0.0884 |
| RRIRVRPPRLPRPRPRPFKPPRP | -0.132 |
| RRIRVRPPRLPRPRPRPFLNPRP | -0.148 |

| Sequence | shrunken log2 fold change |
| --- | --- |
| RRIRVRPPRLPRPRPRPFLSPRP | -0.567 |
| RRIRVRPPRLPRPRPRPFMDPRP | -0.36 |
| RRIRVRPPRLPRPRPRPFNGPRP | -0.15 |
| RRIRVRPPRLPRPRPRPFNIPRP | -0.425 |
| RRIRVRPPRLPRPRPRPFPLPRP | -0.566 |
| RRIRVRPPRLPRPRPRPFRYPRP | -0.0399 |
| RRIRVRPPRLPRPRPRPFTRPRP | 0.114 |
| RRIRVRPPRLPRPRPRPFTTPRP | -0.211 |
| RRIRVRPPRLPRPRPRPFVAPRP | -0.118 |
| RRIRVRPPRLPRPRPRPFVKPRP | -0.199 |
| RRIRVRPPRLPRPRPRPFVNPRP | -0.0619 |
| RRIRVRPPRLPRPRPRPFVSPRP | -0.679 |
| RRIRVRPPRLPRPRPRPFYFPRP | -0.493 |
| RRIRVRPPRLPRPRPRPFYLPRP | -0.449 |
| RRIRVRPPRLPRPRPRPGCPPRP | 0.181 |
| RRIRVRPPRLPRPRPRPGDYPRP | -0.0161 |
| RRIRVRPPRLPRPRPRPGEHPRP | -0.035 |
| RRIRVRPPRLPRPRPRPGGCPRP | 0.261 |
| RRIRVRPPRLPRPRPRPGHIPRP | -0.028 |
| RRIRVRPPRLPRPRPRPGHMPRP | 0.0482 |
| RRIRVRPPRLPRPRPRPGIKPRP | 0.174 |
| RRIRVRPPRLPRPRPRPGIVPRP | 0.106 |

| Sequence | shrunken log2 fold change |
| --- | --- |
| RRIRVRPPRLPRPRPRPGKKPRP | 0.0628 |
| RRIRVRPPRLPRPRPRPGKRPRP | -0.00991 |
| RRIRVRPPRLPRPRPRPGMGPRP | 0.0724 |
| RRIRVRPPRLPRPRPRPGMPPRP | 0.0671 |
| RRIRVRPPRLPRPRPRPGNQPRP | -0.284 |
| RRIRVRPPRLPRPRPRPGPRPRP | 0.791 |
| RRIRVRPPRLPRPRPRPGQEPRP | 0.0329 |
| RRIRVRPPRLPRPRPRPGRFPRP | 0.277 |
| RRIRVRPPRLPRPRPRPGRIPRP | 0.0466 |
| RRIRVRPPRLPRPRPRPGRNPRP | -0.00746 |
| RRIRVRPPRLPRPRPRPGSGPRP | 0.0303 |
| RRIRVRPPRLPRPRPRPGSKPRP | 0.0731 |
| RRIRVRPPRLPRPRPRPGWIPRP | 0.486 |
| RRIRVRPPRLPRPRPRPGWSPRP | 0.434 |
| RRIRVRPPRLPRPRPRPGYNPRP | -0.193 |
| RRIRVRPPRLPRPRPRPGYTPRP | -0.208 |
| RRIRVRPPRLPRPRPRPHAQPRP | -0.224 |
| RRIRVRPPRLPRPRPRPHAVPRP | -0.318 |
| RRIRVRPPRLPRPRPRPHCAPRP | -0.179 |
| RRIRVRPPRLPRPRPRPHCMPRP | -0.414 |
| RRIRVRPPRLPRPRPRPHCVPRP | -0.315 |
| RRIRVRPPRLPRPRPRPHDLPRP | -0.226 |

| Sequence | shrunken log2 fold change |
| --- | --- |
| RRIRVRPPRLPRPRPRPHEDPRP | 0.0277 |
| RRIRVRPPRLPRPRPRPHFSPRP | -0.0373 |
| RRIRVRPPRLPRPRPRPHFWPRP | -0.158 |
| RRIRVRPPRLPRPRPRPHGSPRP | -0.156 |
| RRIRVRPPRLPRPRPRPHIRPRP | -0.503 |
| RRIRVRPPRLPRPRPRPHITPRP | -0.643 |
| RRIRVRPPRLPRPRPRPHIVPRP | -0.165 |
| RRIRVRPPRLPRPRPRPHLQPRP | 0.14 |
| RRIRVRPPRLPRPRPRPHNKPRP | -0.63 |
| RRIRVRPPRLPRPRPRPHPDPRP | 0.015 |
| RRIRVRPPRLPRPRPRPHPEPRP | -0.155 |
| RRIRVRPPRLPRPRPRPHQAPRP | 0.0697 |
| RRIRVRPPRLPRPRPRPHQFPRP | -0.0147 |
| RRIRVRPPRLPRPRPRPHRYPRP | -0.348 |
| RRIRVRPPRLPRPRPRPHSHPRP | -0.348 |
| RRIRVRPPRLPRPRPRPHTGPRP | -0.495 |
| RRIRVRPPRLPRPRPRPHTKPRP | 0.11 |
| RRIRVRPPRLPRPRPRPHTTPRP | -0.26 |
| RRIRVRPPRLPRPRPRPHVVPRP | -0.479 |
| RRIRVRPPRLPRPRPRPHWRPRP | 0.306 |
| RRIRVRPPRLPRPRPRPHWVPRP | -0.152 |
| RRIRVRPPRLPRPRPRPIAIPRP | -0.0841 |

| Sequence | shrunken log2 fold change |
| --- | --- |
| RRIRVRPPRLPRPRPRPIANPRP | 0.0572 |
| RRIRVRPPRLPRPRPRPIDEPRP | 0.0357 |
| RRIRVRPPRLPRPRPRPIEGPRP | -0.0117 |
| RRIRVRPPRLPRPRPRPIGWPRP | 0.213 |
| RRIRVRPPRLPRPRPRPILAPRP | -0.224 |
| RRIRVRPPRLPRPRPRPILDPRP | -0.224 |
| RRIRVRPPRLPRPRPRPIMDPRP | -0.151 |
| RRIRVRPPRLPRPRPRPIMHPRP | -0.156 |
| RRIRVRPPRLPRPRPRPIMTPRP | -0.359 |
| RRIRVRPPRLPRPRPRPIQLPRP | -0.174 |
| RRIRVRPPRLPRPRPRPIQNPRP | -0.121 |
| RRIRVRPPRLPRPRPRPIQVPRP | 0.0304 |
| RRIRVRPPRLPRPRPRPITMPRP | -0.432 |
| RRIRVRPPRLPRPRPRPIVKPRP | -0.0955 |
| RRIRVRPPRLPRPRPRPIVMPRP | -0.107 |
| RRIRVRPPRLPRPRPRPIWRPRP | 0.207 |
| RRIRVRPPRLPRPRPRPIYVPRP | -0.0279 |
| RRIRVRPPRLPRPRPRPKAGPRP | 0.0641 |
| RRIRVRPPRLPRPRPRPKAIPRP | -0.0609 |
| RRIRVRPPRLPRPRPRPKCLPRP | 0.127 |
| RRIRVRPPRLPRPRPRPKDLPRP | 0.0892 |
